2 molecules from patent US20110251256A1 (KOREA UNIVERSITY INDUSTRIAL AND ACADEMIC COLLABORATIVE …, published 2011) can be followed below.

T1: β-Catenin (endogenous protein of C2C12 myotubes) (UniProt Q02248 2-781)
T1 construct: also called 13-Catenin
T1 sequence (looked up): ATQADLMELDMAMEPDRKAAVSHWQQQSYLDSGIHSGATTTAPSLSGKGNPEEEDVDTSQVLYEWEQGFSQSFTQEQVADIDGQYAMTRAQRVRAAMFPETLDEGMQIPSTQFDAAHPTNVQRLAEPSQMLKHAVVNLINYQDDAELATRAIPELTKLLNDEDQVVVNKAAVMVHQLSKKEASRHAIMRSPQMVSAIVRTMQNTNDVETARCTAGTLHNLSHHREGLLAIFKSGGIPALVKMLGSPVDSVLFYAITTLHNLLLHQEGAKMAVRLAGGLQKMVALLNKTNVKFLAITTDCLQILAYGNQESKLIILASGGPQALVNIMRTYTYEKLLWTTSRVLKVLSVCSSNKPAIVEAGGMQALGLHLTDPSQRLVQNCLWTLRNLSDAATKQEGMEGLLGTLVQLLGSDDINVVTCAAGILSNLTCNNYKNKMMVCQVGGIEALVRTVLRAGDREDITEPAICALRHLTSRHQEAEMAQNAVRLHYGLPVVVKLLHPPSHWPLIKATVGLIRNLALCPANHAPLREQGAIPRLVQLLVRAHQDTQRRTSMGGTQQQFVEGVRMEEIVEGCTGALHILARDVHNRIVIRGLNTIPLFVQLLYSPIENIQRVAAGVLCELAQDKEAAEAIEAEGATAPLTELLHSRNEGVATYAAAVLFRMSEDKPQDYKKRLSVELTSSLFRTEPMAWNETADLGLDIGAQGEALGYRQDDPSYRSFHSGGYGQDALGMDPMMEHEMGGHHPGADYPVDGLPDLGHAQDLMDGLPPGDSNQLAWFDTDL

T2: M-Cadherin (endogenous protein of C2C12 myotubes), P33146
T2 chain: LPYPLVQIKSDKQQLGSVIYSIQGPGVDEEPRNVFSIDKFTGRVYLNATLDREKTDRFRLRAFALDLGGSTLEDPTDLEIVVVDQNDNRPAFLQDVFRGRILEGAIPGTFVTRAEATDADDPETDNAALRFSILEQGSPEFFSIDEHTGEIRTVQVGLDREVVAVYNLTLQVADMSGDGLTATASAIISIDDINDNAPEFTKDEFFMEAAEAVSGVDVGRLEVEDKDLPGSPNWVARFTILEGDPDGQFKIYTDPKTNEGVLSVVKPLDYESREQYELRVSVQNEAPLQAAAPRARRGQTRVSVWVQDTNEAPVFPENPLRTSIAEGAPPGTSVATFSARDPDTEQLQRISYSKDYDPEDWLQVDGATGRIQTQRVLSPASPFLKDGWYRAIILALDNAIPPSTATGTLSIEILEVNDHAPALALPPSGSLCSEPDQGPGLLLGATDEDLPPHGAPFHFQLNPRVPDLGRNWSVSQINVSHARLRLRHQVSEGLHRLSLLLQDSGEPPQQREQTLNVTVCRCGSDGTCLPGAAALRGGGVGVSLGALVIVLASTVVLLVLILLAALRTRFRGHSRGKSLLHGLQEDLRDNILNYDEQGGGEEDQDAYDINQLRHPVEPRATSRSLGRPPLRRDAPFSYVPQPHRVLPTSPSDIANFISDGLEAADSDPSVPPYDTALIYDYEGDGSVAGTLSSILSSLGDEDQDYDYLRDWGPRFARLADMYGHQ

T3: IRS-1 (endogenous protein of C2C12 cells), P35569
T3 chain: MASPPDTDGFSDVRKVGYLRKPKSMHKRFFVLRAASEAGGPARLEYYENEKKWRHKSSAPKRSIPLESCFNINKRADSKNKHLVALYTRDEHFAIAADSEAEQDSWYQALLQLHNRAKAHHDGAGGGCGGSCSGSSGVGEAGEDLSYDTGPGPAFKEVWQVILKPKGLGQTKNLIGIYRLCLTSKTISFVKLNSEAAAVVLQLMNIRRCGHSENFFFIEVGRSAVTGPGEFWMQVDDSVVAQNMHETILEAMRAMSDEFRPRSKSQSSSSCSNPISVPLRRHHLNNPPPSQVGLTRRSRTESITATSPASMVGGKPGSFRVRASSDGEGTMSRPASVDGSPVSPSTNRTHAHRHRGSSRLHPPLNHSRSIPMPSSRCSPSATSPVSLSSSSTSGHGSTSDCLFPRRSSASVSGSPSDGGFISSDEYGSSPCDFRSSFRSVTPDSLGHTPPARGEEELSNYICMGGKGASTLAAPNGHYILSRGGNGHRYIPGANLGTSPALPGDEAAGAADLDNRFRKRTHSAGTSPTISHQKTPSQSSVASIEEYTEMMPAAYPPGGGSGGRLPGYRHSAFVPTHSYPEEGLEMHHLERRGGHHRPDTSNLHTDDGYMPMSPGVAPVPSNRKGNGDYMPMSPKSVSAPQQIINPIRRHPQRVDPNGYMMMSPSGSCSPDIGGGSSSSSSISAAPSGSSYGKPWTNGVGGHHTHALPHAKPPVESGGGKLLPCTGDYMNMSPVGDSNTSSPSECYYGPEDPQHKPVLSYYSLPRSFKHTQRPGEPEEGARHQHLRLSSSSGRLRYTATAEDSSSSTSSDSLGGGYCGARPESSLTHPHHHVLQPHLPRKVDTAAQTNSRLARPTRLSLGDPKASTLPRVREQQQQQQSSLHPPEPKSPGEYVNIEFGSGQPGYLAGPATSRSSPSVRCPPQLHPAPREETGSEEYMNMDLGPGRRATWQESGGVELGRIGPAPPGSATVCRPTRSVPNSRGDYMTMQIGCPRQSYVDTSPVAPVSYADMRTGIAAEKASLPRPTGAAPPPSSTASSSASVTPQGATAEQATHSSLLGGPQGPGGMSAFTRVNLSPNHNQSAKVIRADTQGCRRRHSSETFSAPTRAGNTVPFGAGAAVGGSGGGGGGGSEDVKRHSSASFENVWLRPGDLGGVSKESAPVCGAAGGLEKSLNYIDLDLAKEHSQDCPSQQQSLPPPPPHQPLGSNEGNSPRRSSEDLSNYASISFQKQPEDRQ

T4: IRS-1 (endogenous protein of C2C12 cells) (UniProt P35569 1-1233)
T4 construct: also called insulin receptor substrate-1
T4 sequence (looked up): T3 chain

B1: M-Cadherin (endogenous protein of C2C12 myotubes) (other, UniProt P33146 60-784, looked up)
chain: T2 chain
B2: TRIM72 (endogenous protein of C2C12 myotubes) (enzyme)
chain: MSAAPGLLRQELSCPLCLQLFDAPVTAECGHSFCRACLIRVAGEPAADGTVACPCCQAPTRPQALSTNLQLSRLVEGLAQVPQGHCEEHLDPLSIYCEQDRTLVCGVCASLGSHRGHRLLPAAEAQARLKTQLPQQKMQLQEACMRKEKTVAVLEHQLVEVEETVRQFRGAVGEQLGKMRMFLAALESSLDREAERVRGDAGVALRRELSSLNSYLEQLRQMEKVLEEVADKPQTEFLMKFCLVTSRLQKILSESPPPARLDIQLPVISDDFKFQVWKKMFRALMPALEELTFDPSSAHPSLVVSSSGRRVECSDQKAPPAGEDTRQFDKAVAVVAQQLLSQGEHYWEVEVGDKPRWALGVMAADASRRGRLHAVPSQGLWLLGLRDGKILEAHVEAKEPRALRTPERPPARIGLYLSFADGVLAFYDASNPDVLTPIFSFHERLPGPVYPIFDVCWHDKGKNAQPLLLVGPEQEQA
notes: Endogenous protein in lysates of C2C12 myotubes; also called tripartite motif-containing 72

Data set [1] deals with T1, β-Catenin (endogenous protein of C2C12 …). Kind of data set: immunoprecipitation from myotubes treated with Si-Control or Si-TRIM72 (FIG. 12F).
The target of data set [2] is T2, M-Cadherin (endogenous protein of C2C12 …).
The target of data set [3] is T3, IRS-1 (endogenous protein of C2C12 …).
In data set [4] the target is B1. Kind of data set: immunoprecipitation of myotube protein with TRIM72 antibody or M-Cadherin antibody (FIGS. 12G and 12H).
In data set [5] the target is T4, IRS-1 (endogenous protein of C2C12 …). Kind of data set: endogenous immunoprecipitation in C2C12 myotubes treated with IGF-I for 0, 5 and 30 minutes (FIG. 9A). The method, then: Western blotting and immunostaining were performed as described in Kim, K. B. et al. Proteomics 6, 2444-53 (2006). For immunoprecipitation, cells were lysed in buffer containing 20 mM Tris-HCl pH 7.4, 137 mM NaCl, 1 mM MgCl₂, 1 mM CaCl₂, 20 mM NaF, 10 mM Na₄P₂O₇, 1% NP-40, 1 mM Na₃VO₄, 1 mM PMSF and protease inhibitor cocktail (Roche). The whole cell lysates (600 μg protein) were incubated with specific antibodies for 90 min and then with 50 μl of Protein A-sepharose or G-agarose bead (50%) slurry for 1 h. The immunoprecipitates were analyzed by Western blotting.
Next, the effect of TRIM72 on IGF-1-induced tyrosine phosphorylation of IGFR and IRS-1 was investigated. The tyrosine phosphorylation of IGFR induced by IGF-I was not changed by TRIM72 overexpression or knockdown (FIG. 8). […] Moreover, the molecular association of IRS-1 with PI3K after IGF-I stimulation was weakened by TRIM72 overexpression, but fortified by TRIM72 knockdown. […] In order to analyze the binding domains of TRIM72 and IRS-1, various mutants of both genes were manufactured (FIG. 9B) and transfected into 293 cells. Then, the binding activity was investigated by immunoprecipitation. […] It should be noted that the 293 cells were treated with MG132 (proteasome inhibitor) after transferring IRS-1 and TRIM72.

B1: the binding result in data set [1] is recorded as “binds”.

As to B2, in data set [2], the “ubiquitination of M-Cadherin in myotubes with reduced TRIM72” value is listed as “Si-Control treated cells showed stained band (which denotes ubiquitination), whereas Si-TRIM72-treated cells did not”. Also, in data set [3], the “molecular association of IRS-1 with PI3K after IGF-I stimulation” value is reported as “the molecular association of IRS-1 with PI3K after IGF-I stimulation was weakened by TRIM72 overexpression, but fortified by TRIM72 knockdown” and the “tyrosine phosphorylation of IRS-1 induced by IGF-I” value is “the tyrosine phosphorylation of IRS-1 was decreased by TRIM72 overexpression, but increased by TRIM72 knockdown”. For the same molecule, the binding result in data set [4] is “binds”. For the same molecule, in data set [5], the binding result is on record as “binds”.
